Here are results for 28 variants from the supplement of paper PMC7125110.

To fix the notation:
B1: glmS ribozyme (parent)
chain: AUAAAAGCGCCAGAACUACAGAAAUGUAGUUGACGAGGAGGAGGUUUAUCGAAUUUUCGGCGGAUGCCUCCAAA

What all share (settings): with glucosamine-6-phosphate
Variants of B1 are the subject of data set [1]. The data set can be described thus: self-cleavage kobs at 160 uM GlcN6P; higher = faster cleavage; RNA array. A digest of the protocol: (§1)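 E. coli RNA polymerase transcribed barcoded ribozyme variants in situ on sequenced MiSeq chips, which were tracked via a hybridised Cy3 probe at 37 °C. Tiles were imaged over ~14 h after glucosamine-6-phosphate (40 μM to 10 mM) in HEPES/KCl/Mg(OAc)2 buffer was flowed in. Normalised per-tile medians were fit to one- or two-exponential decays for kobs, and kcat and KM came from weighted Michaelis–Menten fits.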

In data set [2] the parent is B1. The data set can be described thus: self-cleavage kobs at 2500 uM GlcN6P; higher = faster cleavage; RNA array. The essentials:
as §1

Variants of B1 are the subject of data set [3]. The data set can be described thus: self-cleavage kobs at 640 uM GlcN6P; higher = faster cleavage; RNA array. The essentials:
as §1

Variants of B1 are the subject of data set [4]. The data set can be described thus: self-cleavage kobs at 10000 uM GlcN6P; higher = faster cleavage; RNA array. The essentials: as §1

± gives the standard error. Fewer inactive variants are shown than the library holds. Some results are limits rather than exact numbers.

As for C50A C67U U69C, the “self-cleavage kobs at 160 uM GlcN6P” value in data set [1] is 5.97e-05 ± 1.8e-05 s⁻¹. Besides, the “self-cleavage kobs at 2500 uM GlcN6P” value in data set [2] came out at 0.000119 ± 3.2e-05 s⁻¹.
As for C11G C67U, in data set [1], the “self-cleavage kobs at 160 uM GlcN6P” value is under 1e-05 s⁻¹. The “self-cleavage kobs at 640 uM GlcN6P” value in data set [3] is under 1e-05 s⁻¹. Further, the “self-cleavage kobs at 2500 uM GlcN6P” value in data set [2] is under 1e-05 s⁻¹.
Consider A12G U56C G60A, for which the “self-cleavage kobs at 160 uM GlcN6P” value in data set [1] is under 1e-05 s⁻¹. Further, the “self-cleavage kobs at 640 uM GlcN6P” value in data set [3] was under 1e-05 s⁻¹. In addition, the “self-cleavage kobs at 2500 uM GlcN6P” value in data set [2] is under 1e-05 s⁻¹.
For C16A C50G U55C G63C C70G, the “self-cleavage kobs at 160 uM GlcN6P” value in data set [1] came out at 0.000129 ± 4.7e-05 s⁻¹. Besides, the “self-cleavage kobs at 640 uM GlcN6P” value in data set [3] was found to be 0.00119 ± 0.00038 s⁻¹.
Turning to G9U A12G U54G, the “self-cleavage kobs at 160 uM GlcN6P” value in data set [1] was under 1e-05 s⁻¹.
Turning to G41U A48U U49G, the “self-cleavage kobs at 160 uM GlcN6P” value in data set [1] is under 1e-05 s⁻¹. Further, the “self-cleavage kobs at 640 uM GlcN6P” value in data set [3] was under 1e-05 s⁻¹. The “self-cleavage kobs at 2500 uM GlcN6P” value in data set [2] is under 1e-05 s⁻¹.
For G32A A52U G63C, the “self-cleavage kobs at 160 uM GlcN6P” value in data set [1] was under 1e-05 s⁻¹. Further, the “self-cleavage kobs at 640 uM GlcN6P” value in data set [3] was under 1e-05 s⁻¹. Besides, in data set [2], the “self-cleavage kobs at 2500 uM GlcN6P” value was under 1e-05 s⁻¹.
For A6C G66U, the “self-cleavage kobs at 160 uM GlcN6P” value in data set [1] is under 1e-05 s⁻¹. Moreover, the “self-cleavage kobs at 640 uM GlcN6P” value in data set [3] was under 1e-05 s⁻¹. For the same variant, the “self-cleavage kobs at 2500 uM GlcN6P” value in data set [2] is under 1e-05 s⁻¹.
In the case of C11U U47A, in data set [1], the “self-cleavage kobs at 160 uM GlcN6P” value was found to be 9.6e-05 ± 3.1e-05 s⁻¹. In addition, the “self-cleavage kobs at 640 uM GlcN6P” value in data set [3] was found to be 0.000187 ± 4.3e-05 s⁻¹. In data set [2], the “self-cleavage kobs at 2500 uM GlcN6P” value came to 0.0014 ± 0.00025 s⁻¹. Moreover, the “self-cleavage kobs at 10000 uM GlcN6P” value in data set [4] is 0.0016 ± 0.00047 s⁻¹.
G13U A15U A36C A42G G59C C67G: the “self-cleavage kobs at 160 uM GlcN6P” value in data set [1] is under 1e-05 s⁻¹.
With C11G A64U U65A, the “self-cleavage kobs at 160 uM GlcN6P” value in data set [1] was under 1e-05 s⁻¹. For the same variant, the “self-cleavage kobs at 640 uM GlcN6P” value in data set [3] was under 1e-05 s⁻¹. Besides, the “self-cleavage kobs at 2500 uM GlcN6P” value in data set [2] is under 1e-05 s⁻¹.
Take U30G G32U A36U G60A U69C C71A: in data set [1], the “self-cleavage kobs at 160 uM GlcN6P” value was under 1e-05 s⁻¹.
Consider C34U G37C, for which, in data set [1], the “self-cleavage kobs at 160 uM GlcN6P” value is under 1e-05 s⁻¹. Moreover, the “self-cleavage kobs at 10000 uM GlcN6P” value in data set [4] was under 1e-05 s⁻¹.
Regarding A6C G7C A15U, the “self-cleavage kobs at 160 uM GlcN6P” value in data set [1] was under 1e-05 s⁻¹. Further, the “self-cleavage kobs at 640 uM GlcN6P” value in data set [3] is under 1e-05 s⁻¹. The “self-cleavage kobs at 2500 uM GlcN6P” value in data set [2] is under 1e-05 s⁻¹.
As for A48U U49C A64U C70U, the “self-cleavage kobs at 160 uM GlcN6P” value in data set [1] is under 1e-05 s⁻¹. For the same variant, the “self-cleavage kobs at 640 uM GlcN6P” value in data set [3] is under 1e-05 s⁻¹.
Consider A6U U45C, for which, in data set [1], the “self-cleavage kobs at 160 uM GlcN6P” value is under 1e-05 s⁻¹. Further, the “self-cleavage kobs at 640 uM GlcN6P” value in data set [3] was under 1e-05 s⁻¹.
With G40U G60A C70A, the “self-cleavage kobs at 160 uM GlcN6P” value in data set [1] was under 1e-05 s⁻¹. The “self-cleavage kobs at 2500 uM GlcN6P” value in data set [2] was under 1e-05 s⁻¹.
As for G35U G66C, the “self-cleavage kobs at 160 uM GlcN6P” value in data set [1] is under 1e-05 s⁻¹. The “self-cleavage kobs at 640 uM GlcN6P” value in data set [3] is under 1e-05 s⁻¹. Further, in data set [2], the “self-cleavage kobs at 2500 uM GlcN6P” value is under 1e-05 s⁻¹.
Consider A36C G37C A52U A64G C70G, for which, in data set [1], the “self-cleavage kobs at 160 uM GlcN6P” value was under 1e-05 s⁻¹. Moreover, the “self-cleavage kobs at 640 uM GlcN6P” value in data set [3] is under 1e-05 s⁻¹.
As to A6C A14C G44U U45C, in data set [1], the “self-cleavage kobs at 160 uM GlcN6P” value is under 1e-05 s⁻¹. Further, the “self-cleavage kobs at 2500 uM GlcN6P” value in data set [2] is under 1e-05 s⁻¹.
On to A39U U47G A52U G60U G63U, for which the “self-cleavage kobs at 160 uM GlcN6P” value in data set [1] was under 1e-05 s⁻¹.
Same read-out and setting: the result for A42G C61A C67A reads 0.000467 ± 0.00018 s⁻¹.
As for A6G G7U C34G, in data set [1], the “self-cleavage kobs at 160 uM GlcN6P” value was under 1e-05 s⁻¹. Also, in data set [3], the “self-cleavage kobs at 640 uM GlcN6P” value was under 1e-05 s⁻¹. In data set [2], the “self-cleavage kobs at 2500 uM GlcN6P” value was under 1e-05 s⁻¹.
In the case of G32U C50G, the “self-cleavage kobs at 160 uM GlcN6P” value in data set [1] came to 5.71e-05 ± 2e-05 s⁻¹.
In the case of U2C U56C, the “self-cleavage kobs at 160 uM GlcN6P” value in data set [1] is 0.000197 ± 5.4e-05 s⁻¹. Moreover, the “self-cleavage kobs at 640 uM GlcN6P” value in data set [3] turned out to be 0.000865 ± 0.00022 s⁻¹. The “self-cleavage kobs at 2500 uM GlcN6P” value in data set [2] came out at 0.00287 ± 0.00077 s⁻¹.
Turning to C11G G29A G37U, in data set [1], the “self-cleavage kobs at 160 uM GlcN6P” value was under 1e-05 s⁻¹. Moreover, in data set [3], the “self-cleavage kobs at 640 uM GlcN6P” value was under 1e-05 s⁻¹.
Take C8A G51U: the “self-cleavage kobs at 160 uM GlcN6P” value in data set [1] is under 1e-05 s⁻¹. In addition, the “self-cleavage kobs at 640 uM GlcN6P” value in data set [3] was under 1e-05 s⁻¹.
With G38U C58U G63U, the “self-cleavage kobs at 160 uM GlcN6P” value in data set [1] was under 1e-05 s⁻¹.
